Publication PMC8017934
pKd: −log10 of the molar value. Where “and” joins values, the source holds several entries; their conditions need not be identical. Identical values can stand only once.

What was measured:
[1] = biological target: human 40S ribosomal subunit with the ybbR tag on RACK1, biotinylated or Cy5-labelled (human) (UniProt P63244)
[2] = biological target: human 40S ribosomal subunit with the ybbR tag on uS19, Cy3-labelled (human (endogenous in HEK293T)) (UniProt P62841)

**Q.** What does the source list for “Bat-Hp-CoV NSP1 with an N-terminal ybbR tag, Cy3-labelled (natural protein)”?
**A.** pKd [1]: > 9.00; fraction of IRES–40S complexes bound at least once by NSP1 (≥∼5 s) [1]: 89%; koff [1]: < 0.002 s⁻¹

**Q.** How did the fraction of recruited 40S subunits with which NSP1 coassociated [2] turn out when “SARS-CoV-2 NSP1 with an N-terminal ybbR tag, fluorescently labelled (from UniProt P0DTD1 1-180) (natural protein)” was run?
**A.** 57% and 60%

**Q.** With “SARS-CoV-2 NSP1(KH164-165AA) with an N-terminal ybbR tag, Cy3-labelled (from UniProt P0DTD1 1-180) (natural protein)” as the substance, how does the pKd [1] read?
**A.** < 6.46

**Q.** And the fraction of IRES–40S complexes bound at least once by NSP1 (≥∼5 s) [1]?
**A.** 9%

**Q.** What about the koff [1] of the same substance?
**A.** 0.14 s⁻¹
